Residue numbers refer to the chain shown, from its start. Blank lines part the entries; values can stand above or below the binder they belong to.
Columns and labels:
mouse serum albumin [1] = biological target: T1, mouse serum albumin (mouse, UniProt P07724 25-608); assay: SPR (Biacore), cross-reactivity
T1 construct: also called MSA

[2] = biological target: T2, Cynomolgus monkey serum albumin (Cynomolgus monkey, UniProt A2V9Z4 25-608); assay: SPR (Biacore), cross-reactivity
T2 construct: also called CSA; cyno serum albumin

rat serum albumin [3] = biological target: T3, rat serum albumin (rat, UniProt P02770 25-608); assay: SPR (Biacore), cross-reactivity
T3 construct: also called RSA

human serum albumin [4] = biological target: T4, human serum albumin (human, UniProt P02768 25-609); assay: SPR (Biacore), cross-reactivity
T4 construct: also called HSA; human SA

mouse serum albumin [5] = biological target: T1, mouse serum albumin; assay: SPR (BIAcore), eight-point dilution kinetics
[6] = biological target: T2, Cynomolgus monkey serum albumin; assay: SPR (BIAcore), eight-point dilution kinetics
rat serum albumin [7] = biological target: T3, rat serum albumin; assay: SPR (BIAcore), eight-point dilution kinetics
human serum albumin [8] = biological target: T4, human serum albumin; assay: SPR (BIAcore), eight-point dilution kinetics
human serum albumin [9] = biological target: T4, human serum albumin; assay: SPR (Biacore), cross-reactivity against four serum albumins
[10] = biological target: T5, Cynomolgus monkey serum albumin (Cynomolgus monkey), A2V9Z4; assay: SPR (BIAcore), eight-point dilution kinetics; conditions: remark: other sources report otherwise
T5 chain: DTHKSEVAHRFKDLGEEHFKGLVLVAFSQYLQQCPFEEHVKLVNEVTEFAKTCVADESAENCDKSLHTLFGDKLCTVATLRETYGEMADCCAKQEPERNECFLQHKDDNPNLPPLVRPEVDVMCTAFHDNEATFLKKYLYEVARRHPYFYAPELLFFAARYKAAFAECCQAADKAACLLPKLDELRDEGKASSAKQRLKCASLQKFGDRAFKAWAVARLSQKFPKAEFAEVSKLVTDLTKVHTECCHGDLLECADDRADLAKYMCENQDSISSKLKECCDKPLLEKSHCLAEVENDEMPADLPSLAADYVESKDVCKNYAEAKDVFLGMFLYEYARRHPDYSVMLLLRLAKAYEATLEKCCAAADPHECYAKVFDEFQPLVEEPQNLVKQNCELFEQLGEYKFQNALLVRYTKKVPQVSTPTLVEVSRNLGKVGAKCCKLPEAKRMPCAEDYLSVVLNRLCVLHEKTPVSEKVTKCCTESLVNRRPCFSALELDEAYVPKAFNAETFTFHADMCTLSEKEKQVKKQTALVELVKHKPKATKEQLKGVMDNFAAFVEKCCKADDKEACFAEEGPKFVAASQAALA

B1: DOM7h-98 (VHH)
VHH: EVQLLESGGGLVQPGGSLRLSCAASGFTFGNYAMAWVRQAPGKGLEWVSSIDMVGIKTYYADSVKGRFTISRDNSKNTLYLQMNSLRAEDTAVYYCAKGFRIFDYWGQGTLVTVSS
notes: human VH dAb (AlbudAb)
binding result (mouse serum albumin [1]): binds
binding result [2]: binds
binding result (rat serum albumin [3]): binds
binding result (human serum albumin [4]): binds

B2: DOM7h-98-4 (VHH)
VHH: B1 VHH with I70N, K98R
Kd (mouse serum albumin [5]): 810 nM
Kd [6]: 3600 nM
Kd (rat serum albumin [7]): 580 nM
Kd (human serum albumin [8]): 2000 nM

B3: DOM7r-38 (VHH)
VHH: EVQLLESGGGLVQPGGSLRLSCAASGFTFDNNAMGWVRQAPGKGLEWVSTISANGNATYYADSVKGRFTISRDNSKDTLYLQMNSLRAEDTAVYYCAKGFRRFDYWGQGTLVTVSS
notes: human VH dAb (AlbudAb)
binding result (mouse serum albumin [1]): binds
binding result [2]: binds
binding result (rat serum albumin [3]): binds
binding result (human serum albumin [4]): binds

B6: DOM7r-201 (VHH)
VHH: EVQLLESGGGLVQPGGSLRLSCAASGFTFNHYTMGWVRQAPGKGLEWVSLIHPSGTVIYYADSVKGRFTISRDNSKNTLYLQMNSLRAEDTAVYYCAKWSSRAFDYWGQGTLVTVSS
Kd (mouse serum albumin [5]): 280 nM
Kd [6]: 58 nM
Kd (rat serum albumin [7]): 240 nM
Kd (human serum albumin [8]): 60 nM

B7: DOM7r-36-8 (VHH)
VHH: B6 VHH with K98R
Kd (mouse serum albumin [5]): 520 nM
Kd [6]: 92 nM
Kd (rat serum albumin [7]): 210 nM
Kd (human serum albumin [8]): 67 nM

B8: DOM7r-36-2 (VHH)
VHH: B6 VHH with L45R, I58T
Kd (mouse serum albumin [5]): 520 nM
Kd [6]: 180 nM
Kd (rat serum albumin [7]): 190 nM
Kd (human serum albumin [8]): 150 nM

B10: DOM7r-92-4 (VHH)
VHH: EVQLLESGGGLVQPGGSLRLSCAASGFTFDTSSMLWVRQAPGKGLEWVSVIHQSGTPTYYADSVKGRFTISRDNSKNTLYLQMNSLRAEDTAVYYCAKFPSTHGKFDYWGQGTLVTVSS
Kd (mouse serum albumin [5]): 110 nM
Kd [6]: 98 nM
Kd (rat serum albumin [7]): 260 nM
Kd (human serum albumin [8]): 130 nM

B12: DOM7r-31-14 (VHH)
VHH: EVQLLESGGGLVQPGGSLRLSCTASGFTFRHYRMGWVRQAPGKGLEWVSWIRPDGTFTYYADSVKGRFTISRDNSKNTLYLQMNSLRAEDTAVYYCAKSYMADRFDYWGQGTLVTVSS
Kd [10]: 31000 nM
Kd (mouse serum albumin [5]): 6 nM
Kd (rat serum albumin [7]): 46 nM
Kd (human serum albumin [8]): 58 nM

Second part, the binder after the results:

binding result (human serum albumin [9]): no binding
binding result (mouse serum albumin [1]): binds
binding result [2]: binds
binding result (rat serum albumin [3]): binds
B4: DOM7h-112 (VHH)
VHH: EVQLLESGGGLVQPGGSLRLSCAASGFTFGGYVMGWVRQAPGKGLEWVSAINRFGSSTYYADSVKGRFTISRDNSKNTLYLQMNSLRAEDTAVYYCAKGSLRHFDYWGQGTLVTVSS
notes: human VH immunoglobulin single variable domain (dAb, AlbudAb), not camelid

binding result (mouse serum albumin [1]): binds
binding result [2]: binds
binding result (rat serum albumin [3]): binds
binding result (human serum albumin [4]): binds
B5: DOM7r-35 (VHH)
VHH: EVQLLESGGGLVQPGGSLRLSCAASGFTFSLYRMVWVRQAPGKGLEWVSMISQFGNQTYYADSVKGRFTISRDNSKNTLYLQMNSLRAEDTAVYYCAKVRSWDQTGGRRTFDYWGQGTLVTVSS
notes: human VH dAb (AlbudAb); propensity to dimerise by MALLS

binding result (mouse serum albumin [1]): binds
binding result [2]: binds
binding result (rat serum albumin [3]): binds
binding result (human serum albumin [4]): binds
B9: DOM7r-36 (VHH)
VHH: B6 VHH with I58T
notes: human VH dAb (AlbudAb)

binding result (mouse serum albumin [1]): binds
binding result [2]: binds
binding result (rat serum albumin [3]): binds
binding result (human serum albumin [4]): binds
B11: DOM7r-29 (VHH)
VHH: EVQLLESGGGLVQPGGSLRLSCAASGFTFKDYDMTWVRQAPGKGLEWVSMISSSGLWTYYADSVKGRFTISRDNSKNTLYLQMNSLRAEDTAVYYCAKGFRLFPRTFDYWGQGTLVTVSS
notes: human VH dAb (AlbudAb)

binding result (mouse serum albumin [1]): binds
binding result [2]: binds
binding result (rat serum albumin [3]): binds
binding result (human serum albumin [4]): binds
B13: DOM7r-31 (VHH)
VHH: B12 VHH with A102G
notes: human VH dAb (AlbudAb)
